Here are results for 3 molecules from patent publication US20200057058A1 (MIT, published 2020).

The target in test [1] is T1, streptavidin (UniProt P22629 37-163, limits assumed).
T1 construct: It was used without a stated label in the sandwich assays; also called SA
As to the kind of experiment: sandwich assay: SA in 50% urine, biotin-HRP/TMB detection. As to the method: (§1) Each well was submerged in 1 mL of 1% BSA in Milli-Q water, and the 12-well plate was incubated at 37° C. for 30 minutes. The wells were rinsed twice by adding 2 mL of Milli-Q water and gently shaking the well plate at 70 rpm for 5 minutes. 1 mL of streptavidin diluted in PBS, urine, or blood serum (prepared as described in the Fluorescent Assays section) containing 0.1% BSA was then added to each well, and the well plate was shaken at 70 rpm for 4 hours at room temperature. Wells were rinsed twice with 2 mL of Milli-Q water then twice with 2 mL of 0.1% BSA in Milli-Q water by shaking at 70 rpm for 5 minutes. After rinsing, wells were submerged in 1 mL of 200 ng/mL biotin-HRP in Milli-Q water containing 0.1% BSA, and the well plate was shaken at 70 rpm for 1 hour at room temperature. Wells were then rinsed with water and 0.1% BSA as described previously. 1 mL of solution from a Pierce TMB substrate kit (Thermo Fisher Scientific) was added to each well, and the well plate was shaken vigorously at 125 rpm for 15 minutes at room temperature. 1 mL of 2M H2SO4 was added to each well, and the absorbance at 450 nm was read using a Tecan Infinite M200 PRO plate reader.
(§2) The general procedure for this proof-of-concept experiment is diagrammed in FIG. 28. Films were first exposed to SA solutions and rinsed to remove unbound analyte. Taking advantage of the strong interaction between SA and biotin, thin films were then submerged in a solution of biotinylated horseradish peroxidase (biotin-HRP). Bound SA was detected colorimetrically through the HRP-mediated oxidation of 3,3′,5,5′-tetramethylbenzidine (TMB). Attempts to perform this assay using mSA2 as the analyte were unsuccessful, even when run on an rcSso7d.SA monolayer.

The target in test [2] is T1, streptavidin. As to the kind of experiment: sandwich assay, SA in 50% blood serum, detection with biotin-HRP and TMB. As to the method: as §1, §2
Test [3] deals with T1, streptavidin. As to the kind of experiment: fluorescent binding curve, labeled SA in 50% urine, 4 h; quadratic fit.
The target in test [4] is T1, streptavidin. The test can be described thus: sandwich assay: SA in 50% blood serum, biotin-HRP/TMB detection. Here is the method:
as §1, §2

Test [5] addresses monomeric streptavidin variant mSA2. The test can be described thus: fluorescent binding curve, labeled mSA2 in 50% urine, 4 h; quadratic fit.
The target is the same in test [6]. The test can be described thus: fluorescent binding curves, labeled mSA2 in 50% urine or 50% blood serum, 4 h.
Test [7] has as its target T1, streptavidin. The test can be described thus: fluorescent binding curve, labeled SA in 50% blood serum, 4 h; quadratic fit.
The target in test [8] is monomeric streptavidin variant mSA2. As to the kind of experiment: fluorescent binding curve, labeled mSA2 in 50% blood serum, 4 h; quadratic fit.
Test [9] has as its target T1, streptavidin. The test can be described thus: fluorescent binding assay, labeled SA in 50% urine on thin film, 4 h exposure.
In test [10] the target is monomeric streptavidin variant mSA2. The test can be described thus: fluorescent binding assay, labeled mSA2 in 50% urine on thin film, 4 h exposure. Here is the method: (§3) The binding function of rcSso7d.SA oligomer-PNIPAM thin films was measured using fluorescently-labeled monomeric streptavidin (mSA2) and fluorescently-labeled streptavidin (SA). Details for the expression, purification, and fluorescent labeling of mSA2 are provided below. Samples were prepared by serial dilution of SA or mSA2 in PBS (pH 7.4), human urine (diluted to 50% v/v in PBS, pH 7.4), or blood serum (obtained as the supernatant by centrifuging whole blood at 1500×g for 10 minutes, then diluted to 50% v/v in PBS, pH 7.4). 0.5 μL drops of solutions containing serially diluted fluorescent mSA2 and fluorescent SA samples in PBS (pH 7.4) were gently applied to the surface of each bioconjugate thin film. Films were incubated in a sealed chamber saturated with water vapor at room temperature to prevent to prevent drying of the applied fluorescent samples. […] Fluorescence microscopy images were acquired at 4× magnification using a Cy5 filter set and exposure time of 5000 ms on an Olympus IX-81 inverted fluorescence microscope with an AxioCam HRC CCD camera. Fluorescent intensity was calculated using ImageJ software⁶⁷ by determining the average fluorescent signal in a rectangular area of the fluorescent image free of defects and occupying no less than half of the full sample application area.
(§4) To evaluate how the apparent size-based diffusion properties translated to biosensing capabilities, binding curves were measured using SA and mSA2 solutions in buffer. Binding curves were fit with a quadratic model that is a function of three parameters: the average MFI per binding event a, the total concentration of binding sites [P]T, and the apparent dissociation constant K_{d,app} describing the binding equilibrium between analyte and binding sites within the thin film.

The target in test [11] is T1, streptavidin. The test can be described thus: fluorescent binding assay, labeled SA in 50% blood serum on thin film, 4 h exposure.
The target in test [12] is T1, streptavidin. As to the kind of experiment: apparent Kd (Kd,app); fluorescent binding curve, labeled SA in 50% urine, 4 h; quadratic fit.
In test [13] the target is monomeric streptavidin variant mSA2. As to the kind of experiment: fluorescent binding assay, labeled mSA2 in 50% blood serum on thin film, 4 h exposure. Here is the method: as §3, §4
Test [14] has the same target. The test can be described thus: apparent Kd (Kd,app); fluorescent binding curve, labeled mSA2 in 50% urine, 4 h; quadratic fit.
Test [15] concerns the target T1, streptavidin. As to the kind of experiment: apparent Kd (Kd,app); fluorescent binding curve, labeled SA in 50% blood serum, 4 h; quadratic fit.
Test [16] deals with monomeric streptavidin variant mSA2. The test can be described thus: apparent Kd (Kd,app); fluorescent binding curve, labeled mSA2 in 50% blood serum, 4 h; quadratic fit.
For test [17] the target is unchanged. The test can be described thus: calculated from [P]T of the mSA2 binding curve fit and film thickness. The arrangement: Calculated Density (density of binding sites within a cross-sectional area of the film): unit not given here. As to the method:
To determine the density of binding proteins within a single plane of each thin film, the concentration of accessible binding sites throughout the entire film—taken directly from the binding assay curve fits (Table 4)—was multiplied by the corresponding film thickness. When accounting for differences in film thickness, the density of oligomerized rcSso7d.SA proteins capable of binding mSA2 is found to increase […] with degree of oligomerization (Table 5). This calculated density decreases, though, between the 1×SP25k and 2×SP25k thin films, indicating a lower density of accessible binding sites in the protein domains of the oligomerized rcSso7d.SA conjugate film. The total number of predicted binding sites within each thin film assuming complete accessibility should be proportional to the […] of rcSso7d. SA in the conjugate with PNIPAM. Reasonable estimates for relative values of the predicted number of sites can thus be obtained by normalizing the weight fraction of rcSso7d. SA in each conjugate by the corresponding weight fraction in 1×SP25k. Comparing these predicted relative number of binding sites to the calculated values (FIG. 6C), all oligomeric rcSso7d.SA conjugates are found to contain fewer proteins capable of binding mSA2 than predicted. It is likely that this effect results from a combination of steric blocking of binding sites by bound mSA2 molecules as well as a lack of the free volume required to incorporate mSA2 molecules into the protein nanodomains at high degrees of binding. Despite the lower than expected binding capacity of the conjugate thin films, these biosensors contain approximately […] the quantity of accessible binding sites compared to rcSso7d.SA monolayers on a volumetric basis (Table 4). Recognizing that each plane (and a monolayer) of rcSso7d.SA proteins is roughly 1-2 nm thick,⁸⁰ the studied thin films can be determined to contain approximately 100 more planes of protein than a monolayer.

Test [18] has the same target. As to the kind of experiment: fluorescent binding assay, labeled mSA2 in PBS on thin film; quadratic curve fit. Here is the method: (§5) The binding function of rcSso7d.SA oligomer-PNIPAM thin films was measured using fluorescently-labeled monomeric streptavidin (mSA2) and fluorescently-labeled streptavidin (SA). Details for the expression, purification, and fluorescent labeling of mSA2 are provided below. Samples were prepared by serial dilution of SA or mSA2 in PBS (pH 7.4), human urine (diluted to 50% v/v in PBS, pH 7.4), or blood serum (obtained as the supernatant by centrifuging whole blood at 1500×g for 10 minutes, then diluted to 50% v/v in PBS, pH 7.4). 0.5 μL drops of solutions containing serially diluted fluorescent mSA2 and fluorescent SA samples in PBS (pH 7.4) were gently applied to the surface of each bioconjugate thin film. Films were incubated in a sealed chamber saturated with water vapor at room temperature to prevent to prevent drying of the applied fluorescent samples. After 1 hour, films were thoroughly rinsed with water for 10 seconds (a time determined to be sufficient to remove unbound molecules from the film, see FIG. 33, dried under filtered airflow, and immediately analyzed for fluorescent signal. Fluorescence microscopy images were acquired at 4× magnification using a Cy5 filter set and exposure time of 5000 ms on an Olympus IX-81 inverted fluorescence microscope with an AxioCam HRC CCD camera. Fluorescent intensity was calculated using ImageJ software⁶⁷ by determining the average fluorescent signal in a rectangular area of the fluorescent image free of defects and occupying no less than half of the full sample application area.
Binding assays were performed by adding serially diluted solutions of fluorescently-labeled mSA2 to thin films of each studied conjugate (FIG. 6A). To maintain consistent transport properties between samples, each oligomer was conjugated to the same previously-synthesized 25 kDa PNIPAM sample. Analyte bound to thin films was quantified using fluorescence microscopy, and binding curves were fit to the collected mean fluorescent intensity (MFI) data using the following equation: […]

Test [19] has the same target. As to the kind of experiment: fluorescent binding assay, labeled mSA2; signal three standard deviations above blank. Here is the method: as §5
Oligomerization of rcSso7d.SA also brings about a decrease in biosensor limit of detection (LOD). […] While all thin films display improvements up to threefold in LOD over the monolayer, the trend in LOD with respect to degree of oligomerization is non-monotonic. The primary factor that is expected to affect LOD in the studied biosensors is number of binding sites, as more binding sites enable a greater number of analyte molecules to be captured and shifts analyte-receptor equilibrium in favor of binding events.

The target of test [20] is T1, streptavidin. The test can be described thus: fluorescent binding assay: Alexa Fluor 647-labeled streptavidin applied to the thin film; the sheet names the film 2xSP25k, the legend 2xSP17k. Here is the method:
as §5, with “Films were incubated in a sealed chamber saturated with water vapor at room temperature to prevent to prevent drying of the applied fluorescent samples.” left out

T1 sequence (P22629 37-163 limits assumed): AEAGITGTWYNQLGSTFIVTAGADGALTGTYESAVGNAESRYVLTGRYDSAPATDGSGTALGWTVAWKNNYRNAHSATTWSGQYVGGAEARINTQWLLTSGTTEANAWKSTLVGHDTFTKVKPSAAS

B1: 3xSP30.3k thin film (3x rcSso7d.SA-PNIPAM conjugate, PNIPAM Mn 30.3 kDa) (designed binder)
chain: MGSSHHHHHHSSGLVPRGSHMCATVKFTYQGEEKQVDISKIKIVARDGQYIDFKYDEGGGAYGYGWVSEKDAPKELLQMLEKQGGGGSGGGGSMATVKFTYQGEEKQVDISKIKIVARDGQYIDFKYDEGGGAYGYGWVSEKDAPKELLQMLEKQGGGGSGGGGSMATVKFTYQGEEKQVDISKIKIVARDGQYIDFKYDEGGGAYGYGWVSEKDAPKELLQMLEKQGG
modifications: maleimide end-functionalized PNIPAM (Mn 30.3 kDa) on the N-terminal Cys; film lightly crosslinked with glutaraldehyde
As to B1, the LOD with streptavidin [1] worked out at 28 nM; in the test with streptavidin [4], 87 nM. Further, the “LOD relative to rcSso7d.SA monolayer” value with streptavidin [2] was 2 fold; in [6], 2 orders of magnitude lower. Also, the “[P]T (total concentration of binding sites)” value turned out to be 0.27 nM with streptavidin [3], 16 nM in test [5], 0.23 nM with streptavidin [7] and 5.7 nM in test [8]. Also, the “Limit of Detection” value was 1100 nM with streptavidin [9], 12 nM in test [10], 1800 nM with streptavidin [11] and 25 nM in test [13]. Moreover, the Kd with streptavidin [12] worked out at 30 µM; in test [14], 29 µM; with streptavidin [15] it was 40 µM; in [16] it was 20 µM.

B2: 1xSP25k thin film (1x rcSso7d.SA-PNIPAM conjugate, 25 kDa PNIPAM) (designed binder)
chain: MGSIHHHHHHSSGLVPRGSHMCATVKFTYQGEEKQVDISKIKIVARDGQYIDFKYDEGGGAYGYGWVSEKDAPKELLQMLEKQ
modifications: maleimide end-functionalized PNIPAM (25 kDa) on the N-terminal Cys; film lightly crosslinked with glutaraldehyde
With B2, in test [17], the “Calculated Density (density of binding sites within a cross-sectional area of the film)” value is 48 and the “Calculated Ratio (film thickness x [P]T relative to the 1xSP25k thin film)” value was 1. The “[P]T (total concentration of accessible binding sites)” value in test [18] came out at 3.1 µM. For the same molecule, the “limit of detection (LOD)” value in test [19] was found to be 290 nM.

B3: 2xSP25k thin film (2x rcSso7d.SA-PNIPAM conjugate, 25 kDa PNIPAM) (designed binder)
chain: MGSSHHHHHHSSGLVPRGSHMCATVKFTYQGEEKQVDISKIKIVARDGQYIDFKYDEGGGAYGYGWVSEKDAPKELLQMLEKQGGGGSGGGGSMATVKFTYQGEEKQVDISKIKIVARDGQYIDFKYDEGGGAYGYGWVSEKDAPKELLQMLEKQGG
modifications: maleimide end-functionalized PNIPAM (25 kDa) on the N-terminal Cys; film lightly crosslinked with glutaraldehyde
notes: Two rcSso7d.SA repeats joined by a (G4S)2 linker in one chain
Regarding B3, in test [17], the “Calculated Density (density of binding sites within a cross-sectional area of the film)” value is 43 and the “Calculated Ratio (film thickness x [P]T relative to the 1xSP25k thin film)” value was 0.9. The “[P]T (total concentration of accessible binding sites)” value in [18] was 3.3 µM. Besides, in test [19], the “limit of detection (LOD)” value amounted to 200 nM. In the test with streptavidin [20], the binding result was “binds”.
